The results in this text go back to US10208121B2, “Anti-Axl antagonistic antibodies” (BERGEN TEKNOLOGIOVERFORING AS, priority 2014, dated 2019).

Entries after “also recorded” stand apart in the source; their conditions may differ.

The target in experiment [1] is T1, rhAxl-Fc chimera (recombinant human Axl) (Homo sapiens, UniProt P30530).
T1 construct: Soluble recombinant antigens corresponding to the extracellular domains of members of the human TAM receptor family; purchased R&D Systems 154-AL
As to the kind of experiment: Biacore surface plasmon resonance kinetic affinity determination on immobilized rhAxl-Fc. In kind it is binding. The following applies: for association rate (kon): human Axl, Examples 5 and 13; for Off-rate (koff; s^−1) / On-rate (kon; M^−1s^−1): rhAxl immobilized on sensor chip, 25° C., 1:1 Langmuir binding model. The method, then:
Kinetic analysis of MAbs 10C9 and 10G5 interacting with rhAxl immobilized on the surface of the Biacore sensor chip. Overlay plots of sensograms for different antibody concentrations (1.3-666.7 nM for 10C9 and 0.3-166.7 nM for 10G5) are shown. The precise kinetic analysis was performed using BIA evaluation software and curve fitting according to 1:1 Langmuir binding model.
Kinetic analysis of chimeric antibodies c10C9 and c10G5 interacting with rhAxl immobilized on the surface of the Biacore sensor chip. Overlay plots of sensograms for different antibody concentrations (1.3-666.7 nM for c10C9 and 0.3-166.7 nM for c10G5) are shown. The precise kinetic analysis was performed using BIA evaluation software and curve fitting according to 1:1 Langmuir binding model.
Affinity determination of anti-Axl antibodies 10C9 and 10G5 was performed at 25° C. by surface plasmon resonance measurements using Biacore 3000 instrument (GE Healthcare). As a solid antigen-coated surface, a sensor chip CM5 with immobilized rhAxl-Fc chimera (R&D Systems, Cat. no. 154-AL) at density 190 RU was used.
For the kinetics measurements, different concentrations of anti-Axl antibodies (from 0.3 to 666.7 nM) in HBS-EP buffer (Biacore, Cat. no. BR-1001-88) were injected at flow rate of 30 μL/min with 3 min injection time followed by 5 min dissociation (buffer alone). After each cycle, the surface was regenerated by 30 sec injection of a regeneration solution (10 mM HCl, 1 M NaCl) at flow rate 50 μL/min.
The kinetic association (on-rate, kon) and dissociation (off-rate, koff) rates were calculated using BIAevaluation software and 1:1 Langmuir binding model. The equilibrium dissociation constant (KD) was calculated as the koff/kon ratio. The half-life (t1/2) of the formed antibody-antigen complexes was calculated as the ln 2/koff ratio.
Affinity determination of the chimeric anti-Axl antibodies c10C9 and c10G5 was performed at 25° C. by surface plasmon resonance measurements using Biacore 3000 instrument (GE Healthcare). As a solid antigen-coated surface, a sensor chip CM5 with immobilized rhAxl-Fc chimera (R&D Systems, Cat. no. 154-AL) at density 190 RU was used.
For the kinetics measurements, different concentrations of anti-Axl antibodies (from 0.3 to 333.3 nM) in HBS-EP buffer (Biacore, Cat. no. BR-1001-88) were injected at flow rate of 30 μL/min with 3 min injection time followed by 5 min dissociation (buffer alone). After each cycle, the surface was regenerated by 30 sec injection of a regeneration solution (10 mM HCl, 1 M NaCl) at flow rate 50 μL/min.
In general terms: In SPR one partner is held on a chip, and binding of the other changes the refractive index at the surface.

For experiment [2], the target named is T2, human Axl (rhAxl-Fc chimera) (Homo sapiens, UniProt P30530).
T2 construct: Soluble recombinant antigens corresponding to the extracellular domains of members of the human TAM receptor family; purchased R&D Systems 154-AL
As to the kind of experiment: Biacore binding analysis on immobilized human Axl. To be noted: 10 μg/mL, 25° C. The method, then:
All binding experiments were performed using Biacore 3000 instrument (GE Healthcare) at 25° C. Soluble recombinant antigens corresponding to the extracellular domains of members of the human TAM receptor family, Axl (rhAxl-Fc chimera; R&D Systems, Cat. no. 154-AL), Mer (rhMer-Fc chimera; R&D Systems, Cat. no. 891-MR) and Tyro3 (rhTyro3/Dtk-Fc chimera; R&D Systems, Cat. no. 859-DK) were immobilized on the surface of CM5 sensor chip using amine coupling at the surface density of 393.0, 303.6 and 364.0 resonance units (RU), respectively. The Biacore run was performed in an automatic mode using Binding analysis wizard. Samples containing either MAb 10C9 or MAb 10G5 at concentration 10 μg/mL in HBS-EP buffer (GE Healthcare) were injected over the surfaces with immobilized antigens at flow rate of 30 μL/min for 3 min (association) followed by 5 min dissociation.
The binding experiments were performed using Biacore 3000 instrument (GE Healthcare) at 25° C. The soluble recombinant antigens corresponding to human Axl (rhAxl-Fc chimera; R&D Systems, Cat. no. 154-AL), mouse Axl (rmAxl-Fc chimera; R&D Systems, R&D Systems; Cat. no. 854-AX) and human Tyro3 (rhTyro3/Dtk-Fc chimera; R&D Systems, Cat. no. 859-DK) were immobilized on the surface of CM5 sensor chip using amine coupling at the surface density of 1,308.0, 2,115.9 and 1,429.0 RU, respectively. The Biacore runs were performed in an automatic mode using Binding analysis wizard.
The sample containing either MAb 10C9, MAb 10G5 or recombinant mouse (rm) Axl-ligand Gas6 (R&D Systems, Cat. no. 986-GS/CF) at concentration 10 μg/mL in HBS-EP buffer (GE Healthcare) was injected over the surfaces with immobilized antigens at flow rate of 30 μL/min for 3 min (association) followed by 5 min dissociation.
The sequence of Axl receptor from cynomolgus monkey (Macaca fascicularis; SEQ ID NO.43) was retrieved from WO2009062690A1. Based on the sequence, recombinant extracellular domain of cyno-Axl was generated by transient expression in CHO cells as a fusion protein with human Fc. The recombinant cyno-Axl-Fc was purified to homogeneity using Protein A-Sepharose (GE Healthcare). The binding experiments were performed using Biacore 3000 instrument (GE Healthcare) at 25° C. The soluble recombinant antigens corresponding to human Axl (rhAxl-Fc chimera; R&D Systems, Cat. no. 154-AL) and cyno-Axl were immobilized on the surface of CM5 sensor chip using amine coupling at the surface density of 775 and 880 RU, respectively. The Biacore runs were performed in an automatic mode using Binding analysis wizard.
The sample containing either MAb 10C9, MAb 10G5 or human Axl-specific MAb 5F11 (control) at concentration 10 μg/mL in HBS-EP buffer (GE Healthcare) was injected over the surfaces with immobilized antigens at flow rate of 30 μL/min for 3 min (association) followed by 5 min dissociation.
In addition, the Axl-binding properties of the chimeric antibodies c10C9 and c10G5 were tested using Biacore 3000 instrument (GE Healthcare) and a sensor chip CM5 coated with human Axl (rhAxl-Fc chimera; R&D Systems, Cat. no. 154-AL) at the surface density of 1,308.0 RU. The Biacore runs were performed in an automatic mode using Binding analysis wizard. The samples comprising either the chimeric antibodies c10C9 and c10G5 or their murine counterparts at concentration 10 μg/mL in HBS-EP buffer (GE Healthcare) were injected over the surfaces with immobilized antigens at flow rate of 30 μL/min for 3 min (association) followed by 5 min dissociation.

B1: 10G5: mouse anti-Axl monoclonal antibody from hybridoma WR-10G5-E5, IgG1; VH SEQ ID NO: 21, VL SEQ ID NO: 22 (antibody, listed as Mus musculus, V domains shown)
VH: QVQLQQSGAELVRPGASVKLSCKASGYSFTDFYINWVRQRPGQGLEWIARIFPGGDNTYYNEKFKGKATLTAEESSSTAYIQLSSLTSEDSAVYFCARRGLYYAMDYWGQGISVTVSS
VL: DVLMTQTPLSLPVSLGDQASISCRSSQSLVHSNGIPYLHWYLQKPGQSPKLLIYRVSNRFSGVPDRFSGSGSGTDFTLKISRVEAEDLGVYFCSQGTHVPPTFGGGTKLEIK
On to B1, for which the “association rate (kon)” value in experiment [1] was 830000 M⁻¹ s⁻¹. In experiment [1] (mouse MAbs), the “Off-rate (koff; s^−1)” value was 0.000439 s⁻¹ and the “On-rate (kon; M^−1s^−1)” value was determined as 829000 M⁻¹ s⁻¹. In addition, the “binding to human Axl” value in experiment [2] was “bind strongly; also recorded: specific binding; also recorded: strong and specific interaction”.

B2: c10G5: chimeric (mouse variable/human constant) IgG1 variant of antibody 10G5 (antibody)
heavy: B1 VH
light: B1 VL
modifications: left off: a dimerising Fc or GST
notes: chimeric (mouse variable/human constant) IgG1 variant of antibody 10G5
As to B2, in experiment [1] (chimeric antibodies), the “Off-rate (koff; s^−1)” value came to 0.000169 s⁻¹ and the “On-rate (kon; M^−1s^−1)” value amounted to 1.64e+06 M⁻¹ s⁻¹. In addition, in experiment [2], the “binding to human Axl” value is “bind immobilized Axl with profiles very similar to the binding profiles of the corresponding mouse antibodies”.

B3: 10C9: mouse anti-Axl monoclonal antibody from hybridoma UT-10C9-B9, IgG2b; VH SEQ ID NO: 3, VL SEQ ID NO: 4 (antibody, listed as Mus musculus, V domains shown)
VH: QVQLQQPGPELVKPGASVKISCKTSDYNFTRYYIHWVKQRPGQGLEWIGWIYPGTGDSKYNEKFKGRATLTADTSSSTAYMQLSSQTSEDSAVYFCARNGNYWYFDVWGAGTAVTVSS
VL: DIVMTQAAPSGPVTPGESVSISCRSSKSLLHSNGNTYLYWFLQRPGQSPQLLIYRMSNLASGVPDRFSGSGSGTAFTLRISRVEAEDVGIYYCMQHREYPFTFGGGTKLEIK
In the case of B3, the “association rate (kon)” value in experiment [1] was 1.61e+06 M⁻¹ s⁻¹. For the same molecule, in experiment [1] (mouse MAbs), the “Off-rate (koff; s^−1)” value was determined as 0.000289 s⁻¹ and the “On-rate (kon; M^−1s^−1)” value worked out at 1.61e+06 M⁻¹ s⁻¹. Further, the “binding to human Axl” value in experiment [2] was “specific binding; also recorded: strong and specific interaction”. Besides, the “binding to human Axl” value in experiment [2] (listed as 1009) was “bind strongly”.
